Reference: patent publication US20210062216

Biological target: T1, Myc:SlRin4-3 (pGWB518, N-terminal Myc tag)
T1 chain: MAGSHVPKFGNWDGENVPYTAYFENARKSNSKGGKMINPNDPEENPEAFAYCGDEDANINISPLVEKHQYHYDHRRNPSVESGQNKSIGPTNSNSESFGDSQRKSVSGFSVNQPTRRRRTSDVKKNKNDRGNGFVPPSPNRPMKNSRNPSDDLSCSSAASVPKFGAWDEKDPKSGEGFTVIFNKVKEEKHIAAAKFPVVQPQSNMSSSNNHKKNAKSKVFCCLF

B1: AvrRpt2:Myc (avrRpt2 of Pseudomonas syringae pv. tomato NY15125 in pGWB417, C-terminal Myc tag) (protein)
chain: MKIAPVAINHSPLSREVPSHAAPTQAKQTNLQSEAGDLDARKSSASSPETRALLATKTVLGRHKIEVPAFGGWFKKKSSKHETGGSSANADSSSVASDSTEKPLFRLTHVPYVSQGNERMGCWYACARMVGHSVEAGPRLGLPELYEGREGPAGLQDFSDVERFIHNEGLTRVDLPDNERFTHEELGALLYKHGPIIFGWKTPNDSWHMSVLTGVDKETSSITFHDPRQGPDLAMPLDYFNQRLAWQVPHAMLYR
- abundance of Rin4 protein, c-Myc immunoblot of N. benthamiana leaves 28 hr after agroinfiltration: a decrease in the abundance of Rin4 protein
